# ± gives the standard error. Variants at the floor of the assay were thinned out.
# B1: glmS ribozyme (parent)
# chain: AUAAAAGCGCCAGAACUACAGAAAUGUAGUUGACGAGGAGGAGGUUUAUCGAAUUUUCGGCGGAUGCCUCCAAA
# Columns and labels:
# Details in all cases: with glucosamine-6-phosphate
# glucosamine-6-phosphate [1] = variants of: B1; assay: self-cleavage kobs at 640 uM GlcN6P; higher = faster cleavage; RNA array
# In short: (§1)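 Tiles bearing barcoded ribozyme variants, transcribed in situ by E. coli RNA polymerase on sequenced MiSeq chips, were imaged over ~14 h at 37 °C using a hybridised Cy3 probe. Glucosamine-6-phosphate was supplied at 40 μM to 10 mM in HEPES/KCl/Mg(OAc)2 buffer. kobs came from one- or two-exponential decay fits to normalised per-tile medians, and weighted Michaelis–Menten fits then provided kcat and KM.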
# glucosamine-6-phosphate [2] = variants of: B1; assay: self-cleavage kobs at 2500 uM GlcN6P; higher = faster cleavage; RNA array
# In short: as §1
# glucosamine-6-phosphate [3] = variants of: B1; assay: self-cleavage kobs at 10000 uM GlcN6P; higher = faster cleavage; RNA array
# In short: as §1
Variant,self-cleavage kobs at 640 uM GlcN6P (glucosamine-6-phosphate [1]),self-cleavage kobs at 2500 uM GlcN6P (glucosamine-6-phosphate [2]),self-cleavage kobs at 10000 uM GlcN6P (glucosamine-6-phosphate [3])
G13C A14G U56C,6.74e-05 ± 1.6e-05 s⁻¹,0.000185 ± 4.6e-05 s⁻¹,–
G40U A53G U65C,–,4.92e-05 ± 1.4e-05 s⁻¹,–
A6C A14G A36G A52C,< 1e-05 s⁻¹,< 1e-05 s⁻¹,–
A6G G40A C67U,< 1e-05 s⁻¹,< 1e-05 s⁻¹,–
A14G G38C G44A,< 1e-05 s⁻¹,< 1e-05 s⁻¹,< 1e-05 s⁻¹
A12G G29U G37C,< 1e-05 s⁻¹,< 1e-05 s⁻¹,–
A14U C16A G35C G43C A53C C61U,< 1e-05 s⁻¹,< 1e-05 s⁻¹,–
C16U G60U C68A,< 1e-05 s⁻¹,–,–
U2A,0.0236 ± 0.0098 s⁻¹,–,–
G13U U30A A53G,5.33e-05 ± 1.9e-05 s⁻¹,–,4.23e-05 ± 1.5e-05 s⁻¹
A33U U57A C58U C70A C71G,9.76e-05 ± 2.5e-05 s⁻¹,–,–
G37A U54G U69A,0.000103 ± 2.5e-05 s⁻¹,5.96e-05 ± 2.2e-05 s⁻¹,–
G29C A33G G40A U56C,< 1e-05 s⁻¹,–,–
G40U U47C A53C U54A,7.34e-05 ± 2.8e-05 s⁻¹,0.000202 ± 3.7e-05 s⁻¹,–
U31G G38U A53G C68A C71A,0.000204 ± 7.6e-05 s⁻¹,–,–
A33G C34U G40A A42U C68A,< 1e-05 s⁻¹,< 1e-05 s⁻¹,–
G7C C11U G59U C61U,< 1e-05 s⁻¹,–,–
G9A C10G G44A C70U,< 1e-05 s⁻¹,< 1e-05 s⁻¹,–
G51C C67G C70U,< 1e-05 s⁻¹,< 1e-05 s⁻¹,–
C16G G44U G51U C61U,< 1e-05 s⁻¹,< 1e-05 s⁻¹,–
C8A A15U A48C,< 1e-05 s⁻¹,–,–
G44A U46C C68A,< 1e-05 s⁻¹,< 1e-05 s⁻¹,–
G29C A53G G63U,< 1e-05 s⁻¹,–,–
G41A G63U C70U,–,< 1e-05 s⁻¹,< 1e-05 s⁻¹
G44U G60C G62U,< 1e-05 s⁻¹,< 1e-05 s⁻¹,< 1e-05 s⁻¹
C16A U56G C58G G62C,< 1e-05 s⁻¹,–,–

Variant,self-cleavage kobs at 640 uM GlcN6P (glucosamine-6-phosphate [1]),self-cleavage kobs at 2500 uM GlcN6P (glucosamine-6-phosphate [2]),self-cleavage kobs at 10000 uM GlcN6P (glucosamine-6-phosphate [3])
A12G U47G C50A C68G,0.000111 ± 4.4e-05 s⁻¹,–,–
A33G A52G U65G,< 1e-05 s⁻¹,< 1e-05 s⁻¹,–
C8U G9U A15C G44U,< 1e-05 s⁻¹,< 1e-05 s⁻¹,–
C8U C34G A39G G44U,< 1e-05 s⁻¹,–,–
U30G U47A G60U,< 1e-05 s⁻¹,–,–
A15G G40U C50G G60C,< 1e-05 s⁻¹,–,–
G44A U46C U49C U54G C67G,< 1e-05 s⁻¹,< 1e-05 s⁻¹,–
C10A C61G C67G C71G,0.000346 ± 8.8e-05 s⁻¹,0.000167 ± 8.1e-05 s⁻¹,–
A6U G37A U55G C71G,< 1e-05 s⁻¹,–,< 1e-05 s⁻¹
G9U U56A G63U A64U,< 1e-05 s⁻¹,–,–
A33G U57A,< 1e-05 s⁻¹,< 1e-05 s⁻¹,–
A15C C16G G43U U56C A64U C68A,< 1e-05 s⁻¹,–,–
G7A A39U U49A,< 1e-05 s⁻¹,–,–
G13U A15U G32U G62C C68A,7.42e-05 ± 3.5e-05 s⁻¹,–,–
A24C U47G C67A,0.000315 ± 7.3e-05 s⁻¹,0.000647 ± 0.00024 s⁻¹,–
U57G C67G,0.000478 ± 0.00018 s⁻¹,–,2.33e-05 ± 1e-05 s⁻¹
U47G C70U C71G,0.000118 ± 2.3e-05 s⁻¹,–,–
C10A G43C A53U,< 1e-05 s⁻¹,< 1e-05 s⁻¹,–
A6U G29A G37A G38A A42C G43U G62U C70U,< 1e-05 s⁻¹,< 1e-05 s⁻¹,–
G40A G41A C71A,6.52e-05 ± 1.3e-05 s⁻¹,9.76e-05 ± 1.9e-05 s⁻¹,–
G37U U65A G66C,< 1e-05 s⁻¹,–,–
G35C G40U A52U G63U,< 1e-05 s⁻¹,< 1e-05 s⁻¹,–
A12G C16G C50G C68G,0.000104 ± 4.5e-05 s⁻¹,–,–
U57G C58G C67G,0.000157 ± 5.5e-05 s⁻¹,6.13e-05 ± 2.6e-05 s⁻¹,3.89e-05 ± 1.9e-05 s⁻¹
G13C G32A U45A A52U G60A G62C A64G C68U,< 1e-05 s⁻¹,< 1e-05 s⁻¹,–
G7U U47G A53U,< 1e-05 s⁻¹,< 1e-05 s⁻¹,–

Variant,self-cleavage kobs at 640 uM GlcN6P (glucosamine-6-phosphate [1]),self-cleavage kobs at 2500 uM GlcN6P (glucosamine-6-phosphate [2]),self-cleavage kobs at 10000 uM GlcN6P (glucosamine-6-phosphate [3])
A33U G44U A48C,< 1e-05 s⁻¹,–,–
A33G G38U U65A C70G,7.69e-05 ± 2.1e-05 s⁻¹,–,–
A6U A36C G38U U56C C67G C68G,0.000412 ± 0.0001 s⁻¹,0.000145 ± 4.4e-05 s⁻¹,–
G7U A39C A42C,< 1e-05 s⁻¹,< 1e-05 s⁻¹,–
C10U G60A C67A,< 1e-05 s⁻¹,–,–
G38C U56G C58U,< 1e-05 s⁻¹,–,–
A12G A15C G40U,< 1e-05 s⁻¹,–,–
A14G C16A G40A,0.000169 ± 3e-05 s⁻¹,0.00023 ± 6.8e-05 s⁻¹,–
C11U A12G C67A,8.5e-05 ± 2e-05 s⁻¹,0.000771 ± 0.00025 s⁻¹,–
C8G G59U G66U,< 1e-05 s⁻¹,–,–
G40U U46C U55G,0.000194 ± 6.6e-05 s⁻¹,–,–
C16A U30G U45G G60A G66U,< 1e-05 s⁻¹,–,–
C34G A42C A52U C58U U65G,< 1e-05 s⁻¹,< 1e-05 s⁻¹,–
A6U A15G C19A A33C C68G,< 1e-05 s⁻¹,< 1e-05 s⁻¹,–
G13U A14U G35C U46A G51U U65A,< 1e-05 s⁻¹,–,–
A15U A33G G41U,< 1e-05 s⁻¹,–,–
C8G G13U U55C C58U,< 1e-05 s⁻¹,< 1e-05 s⁻¹,–
G38A G41C U54G C61A,< 1e-05 s⁻¹,< 1e-05 s⁻¹,–
G60U G62A C67U,< 1e-05 s⁻¹,–,–
U31C G38A U47G G51C,–,< 1e-05 s⁻¹,–
G13C A14G A42G,0.000198 ± 6.9e-05 s⁻¹,0.000379 ± 9.2e-05 s⁻¹,–
G9A G62U G66U,< 1e-05 s⁻¹,< 1e-05 s⁻¹,–
U56G U57A,6.17e-05 ± 1e-05 s⁻¹,0.000102 ± 1.2e-05 s⁻¹,0.000326 ± 4.4e-05 s⁻¹
U45G U46C C61A G66U,< 1e-05 s⁻¹,< 1e-05 s⁻¹,–
U31A U47C G51A G66A,< 1e-05 s⁻¹,< 1e-05 s⁻¹,–
C8G G43A C67A,< 1e-05 s⁻¹,–,–

Variant,self-cleavage kobs at 640 uM GlcN6P (glucosamine-6-phosphate [1]),self-cleavage kobs at 2500 uM GlcN6P (glucosamine-6-phosphate [2]),self-cleavage kobs at 10000 uM GlcN6P (glucosamine-6-phosphate [3])
G9C A15U G26U G63C,< 1e-05 s⁻¹,–,–
G7U C50U U65A U69C C71U,6.46e-05 ± 2.1e-05 s⁻¹,–,–
G9C A53U C70A,< 1e-05 s⁻¹,–,–
U31A U46G A48G,< 1e-05 s⁻¹,–,–
A6C A14U U55G,< 1e-05 s⁻¹,–,–
G29A G40A A64G,5.47e-05 ± 1.8e-05 s⁻¹,0.000112 ± 2.1e-05 s⁻¹,–
A14U G35A A64G,< 1e-05 s⁻¹,–,–
G37A C61A C70U,< 1e-05 s⁻¹,< 1e-05 s⁻¹,< 1e-05 s⁻¹
C10G A42C U65G,–,< 1e-05 s⁻¹,–
A14C A15C A39U G40U U49C,< 1e-05 s⁻¹,–,–
G9U A14C A53U G62A C67G,< 1e-05 s⁻¹,< 1e-05 s⁻¹,–
U46G A53G G66U,7.95e-05 ± 2e-05 s⁻¹,0.000148 ± 5.2e-05 s⁻¹,–
A6G A53G C61A,< 1e-05 s⁻¹,< 1e-05 s⁻¹,–
G38A C61A G62C,< 1e-05 s⁻¹,< 1e-05 s⁻¹,< 1e-05 s⁻¹
A12U A53C C67U,0.00253 ± 0.0006 s⁻¹,–,–
G9A G37A U46C,< 1e-05 s⁻¹,–,–
A12C A14C A48U G60A,< 1e-05 s⁻¹,–,–
C8U A12C U49A,< 1e-05 s⁻¹,–,–
A52C U57G U69G,8.06e-05 ± 2.8e-05 s⁻¹,–,–
G41U G43U U45C A53U C71U,< 1e-05 s⁻¹,< 1e-05 s⁻¹,–
U31A A33U G44U U69C,< 1e-05 s⁻¹,–,–
C16U U49G,0.000174 ± 4.8e-05 s⁻¹,0.000685 ± 0.00023 s⁻¹,0.000387 ± 6.5e-05 s⁻¹
C16G U49G U55A,–,5.61e-05 ± 2.1e-05 s⁻¹,–
G38U C50G A64G,6.44e-05 ± 2.9e-05 s⁻¹,3.85e-05 ± 1.7e-05 s⁻¹,–
G29C G41C C68G,< 1e-05 s⁻¹,< 1e-05 s⁻¹,< 1e-05 s⁻¹
G38U C67U C70U,0.000296 ± 0.00014 s⁻¹,–,–

Variant,self-cleavage kobs at 640 uM GlcN6P (glucosamine-6-phosphate [1]),self-cleavage kobs at 2500 uM GlcN6P (glucosamine-6-phosphate [2]),self-cleavage kobs at 10000 uM GlcN6P (glucosamine-6-phosphate [3])
G29C G40A G44U A64G,< 1e-05 s⁻¹,< 1e-05 s⁻¹,–
A48G A53G C67G,6.02e-05 ± 2.2e-05 s⁻¹,6.1e-05 ± 2.3e-05 s⁻¹,–
A6C G13C U47G A48U U65A,< 1e-05 s⁻¹,–,–
G32U A42C C58U,< 1e-05 s⁻¹,< 1e-05 s⁻¹,–
U31G G37C U45G C70U,< 1e-05 s⁻¹,< 1e-05 s⁻¹,–
C11U A12C U31G G32U U57G,< 1e-05 s⁻¹,–,–
A12G A36C A39C C71G,< 1e-05 s⁻¹,< 1e-05 s⁻¹,–
A6U A39C G60A,< 1e-05 s⁻¹,–,–
C10G G13C A39G,< 1e-05 s⁻¹,< 1e-05 s⁻¹,–
A12U A15C C71A,0.000661 ± 0.00015 s⁻¹,0.0015 ± 0.00053 s⁻¹,–
A36G G43U,< 1e-05 s⁻¹,–,< 1e-05 s⁻¹
A6G C11U G51U,< 1e-05 s⁻¹,–,–
G38A G44U C50A,< 1e-05 s⁻¹,–,–
C34A U54A A64C,< 1e-05 s⁻¹,< 1e-05 s⁻¹,–
A14G A33G G41U A48C U69G,< 1e-05 s⁻¹,< 1e-05 s⁻¹,–
G38C G40U U46A,< 1e-05 s⁻¹,–,–
C8G G41U A48U C70U,< 1e-05 s⁻¹,–,–
C16G G32U C61U,< 1e-05 s⁻¹,< 1e-05 s⁻¹,–
C10A C50U C68U,–,6.13e-05 ± 2.7e-05 s⁻¹,–
G9C C70G,< 1e-05 s⁻¹,–,< 1e-05 s⁻¹
G38C U45A C70G,< 1e-05 s⁻¹,–,< 1e-05 s⁻¹
G29A C50G C71A,0.000129 ± 3.4e-05 s⁻¹,0.000111 ± 2.3e-05 s⁻¹,–
A6C C10A C34G C50U U56A,< 1e-05 s⁻¹,< 1e-05 s⁻¹,–
C11A G32U C70G,0.000101 ± 4.4e-05 s⁻¹,–,–
U31C A53U C67U,0.000239 ± 6.6e-05 s⁻¹,0.00045 ± 9.3e-05 s⁻¹,–
U55G G62A G63U,< 1e-05 s⁻¹,–,< 1e-05 s⁻¹
